Biological target: Cul3 (Cullin3) (UniProt Q9JLV5)
Assay: co-IP
Settings: reference: PHLPP2 wild type; sites S1119,S1210

- binding against the reference: weaker
Substance: PHLPP2 (from UniProt Q6ZVD8) PHLPP2-2A (S1119A/S1210A)
